Publication PMC12578283 (Protein & Cell, 2025)
Where “and” joins values, the source holds several entries; their conditions need not be identical. Equal values may be shown once.

T1: p15 protein of African swine fever virus (African swine fever virus, UniProt Q65179 1-158)
T1 chain: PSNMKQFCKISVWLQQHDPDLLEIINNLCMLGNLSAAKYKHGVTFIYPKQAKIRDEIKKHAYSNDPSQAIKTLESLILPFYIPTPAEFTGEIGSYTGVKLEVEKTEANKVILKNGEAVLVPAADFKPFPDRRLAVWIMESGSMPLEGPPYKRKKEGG

B1: monoclonal antibody 4E2 (antibody, V domains shown)
VH: QVQLHQPGSVLVRPGASVKLSCKASGYTFTSSWMHWAKQRPGQGLEWIGEIHPKSGNTNYNENFKGKATLTVDTSSSTAYVDLSSLASEDSAVYYCARSGGTYYYAMDSWGQGTSVTVSS
VL: DIQMTQTTSSLSASLGDRVTISCRASQDTSNYLNWYQQKPDGTVKLLIYYTSRLHSGVPSRFSGSGSGTDFSLTINTLEQEDFATYFCQQGNTSPYTFGGGTKLEIK

What was measured:
[1] = target: p15 protein of African swine fever virus (African swine fever virus) (UniProt Q65179); test: cryo-EM structure
[2] = target: T1, p15 protein of African swine fever virus; test: SPR
[3] = target: p15 protein of African swine fever virus (African swine fever virus, UniProt Q65179); test: SPR; settings: both partners purified

Row | Molecule | stoichiometry N [1] | koff [2] | Kd [3]
1 | p15 protein of African swine fever virus (from UniProt Q65179 1-158) (natural protein) | 3 and 6 |  | 
2 | B1 |  | 0.000503 s⁻¹ | 6.39 nM
